# According to US11781164B2, “Demethylation of reticuline and derivatives thereof with fungal cytochrome P450” (priority 2017, dated 2023):
# B1: P450_DN15259_c0_g1_i7_A: native cytochrome P450 clone from Thamnostylum piriforme (plasmid pEV31541) (protein)
# chain: MDNKAILRQAVYSYRYHIGIAAAVAIVCQQIYSRVFRVPKNLRHIPAISYWSQMKALLKKEAITPRTKRLVYPLLSKANGLYLNRMPFDWTVYVANPMIAKTVLFKPEFATKMSLIGSFSDDSAVLQFVGKDNIAVSNGHQWKKQRKIMNPAFHRSMPVALFASLMPKVFCMIDETQENGDSVGAIQLMQALTLEALGKAVFGFDFGGLDDKNSVWVKTYNEVFKAFTDFTVFLPRLNAFLRRVSPPHRSRHREMLKLIGLLDEMVDKKRQALLDAKNKSVEKVPEHEKDLLTLMLEAEMDGEGVWEKEELRHNIGILFVAGHDTTANSLAFAVYNLAVNKDVQDKARKEIIDLLGDEPKDVAPTLDDCKHMDYIDMIIKETLRMNAPANDLLARIASEDLELGGVLIPKGTMVSVDFHALHLHPDLWEDSERFNPQRFQDNGEHSKHEGVTWVPFSGGSRQCIGINFSMMEQRVALSTLLRKYEWELPADSIHRNGLVMDQPFSFAPSSLKIKFKKRY
# modifications: Thamnostylum piriforme
# B2: LCOR_01865_co: codon-optimized putative cytochrome P450 A0A068RKI7 from Lichtheimia corymbifera (protein, listed as Lichtheimia corymbifera)
# chain: MTEIKDHIYRYRHYIGVAAAVLLVCQQVYHRIFRIPKNLRHLPAIPYGKQLKALQSQENLISRTQRLVFPLLPKAHGVYLNRMPFQWTIYVADPEIARIVFFKPEFANKTSSVLDSIDQNTTLIEFVGNDNVSIVNGHHWKDQRKIMNPAFHRATPVGMFGSLMPKVFRLVEEQPTVPVLELMQKLTLDALGKSVFGFDFGGLDDPDSVWVKTYRLLFDGFTNVIPLVFPRLDGLYRYFSAKRRAQHDAVYKLIDLLDGVADKKRSMLQDDSNSHNDVPEHEKDLLQLMLEAELRGEGNWTKKELRHNMAIFFVAGHDTTSHALTFCLYLLAMNQDIQKKAREEILRVLGDEPKDVFPTLEDCKKLDYLDMVIKESMRIYPPANDILARDVHEDLNVKGIFIPKGAMVSVDIQALHHRPDLWHEPEKFNPDRFLPGGEHDSHEGIAYAPFSSGARQCIALKFSIMQQRVVLAMLLRKFEWELPKESKHKDGIQFEIPFNLAPKDLELIFHKRY
# modifications: codon-optimized
# B3: Ar_ORZ22410_co: codon-optimized putative cytochrome P450 A0A1X2IUG5 from Absidia repens (protein, listed as Absidia repens)
# chain: MNKLFPVGTSNKKKAVLLSLGATVALICRAIYRIYYVPRSLRHIPSVGYFRLIRSILRREDATTRARTVYGPAIKKGNGIYLANFPITWSVFVSSPIAAKSVLMKTDNFPKSMEIFHALGKENPVVRFFGIDNVAIVNGEKWKKQRKVMNPAFHRAMPVQMFGRLMLKGFKNIEKQDYQVPILDFFQRLTLDALGIAGFGFDFHSVDDPESIWTKTYENVRLGLRSPFSFLFPSMDWLLKYIIPGRKELDKSVDKLNALLMSMAQERRLQVRASIDDNVPDSEKDLLTLMLEAELRGEGTASDEQLRSNLAVFFLAGHETTANTMSFCLYNLAMNKEVQSKARQEVLTVLGDEPVDILPQIDELRQMPYIDMVLKENLRRFGPASMLIARKSQEDFDLNGVFIPKNTPVVVETHALHHNPDVWKNPEQFDPERFAPGGEHETCHEGMAWLPFSSGSRGCLGMNFSLAEQRTFLVMLLRKYEWELPEDSIHRNGVKIQNFQNAAPESLEIKFSSRY
# B4: LCOR_09548_co: codon-optimized putative cytochrome P450 A0A068S8J3 from Lichtheimia corymbifera (protein, listed as Lichtheimia corymbifera)
# chain: MSSLNILSLLDNKHINAFFDNPSRAQSGIIAGSVAIVSLCAAYSLGSRLRGSNNGVPLVPYTFPIIGSTKEYQADPQAFIEKWTAKLGPVFRVHLFGRIHTVVSDRYVREVFLNNDFDFLKGTGKRFDTLLLTDTTLEDVDIEVFRTVVMKHLTKEMKHYTPRVVEHLTAGGDEKLGDATEPKELVHLFPLLQHMVAKASASIFVGTELAADDAVVETCKNIAIDIGSELGPSSYIMDAFPSLARLRMWYIGKYGKAINKHRQHLLHALGPVIDKRLAAAEKGGDWDRPQDILQDIIETINLTLDNPKRHILPVKWLLALFFASIHTTSENSTIVLYRIMQNPEIIDVLLEEQNEILEKHYGTNIDYSDTTKLFTGEVIKEMVKLDSVCREAMRSRNSYLELPHTYVGKSRITLSCGAVIEPGHDVLINMWGNHRDAKIQRDTIGDHHDFKPFRFVGLDRQSTKIGDDFLMFGQGRHACPGRWFAIQEIKTIVSVLIRYYKLTPKGPITFPTHPRMPMPTGEVIIQRRQE
# modifications: codon-optimized
# B5: P450_DN5615_c2 g1_i9_co: codon-optimized cytochrome P450 candidate from Cunninghamella echinulata (protein, listed as Cunninghamella echinulata)
# chain: MSQFISTISQYWDVNNFIDQQAWSRFYETYLLKYTDSKAKRLTIGVSVSLLLLGYGIKRLLTPPKHLRHIKHASFLRFTYNFVIKGVTPKEMHTTVSKKIVEENNGFYLQLERTGWVVYVANPEAVKQVLLKSDIFPKMDFSKLASEEGSYFEKFIGFKNILMTTGSEWLKHRKLTNPAFHRSLPAKLFGETAQGLFKIWDNEYNDKPFEVNIHNMNERITLDIIGKAGFAFDFNAVADEKSPWKKTYDIINTAASDPLFFMFPILENKLLWLFPKRQESFKKLDEWKAMLTSVIENKRRLLKDNIDQGVEEAEKDLLTLMIESEFRGEGVLTKEELIGNLTVFFLAGHDTTSFALTSAIYYMARYPEIQEKARQEVNSILCPNGEPNEGILPTIEDTKKLVYLNQIMKESMRIGNPVLFLLSPRQATKDFNLNGTFIPKGTQVNINIHDLHHSSNVWDDPDTFNPDRFAPGGEADKKTGIAWVPFSNGSRQCLGMNFSLLEQRVILSCLLRKYEWTLPENSIHKNDMISKFDLIPSPIDMKIRFERRY
# modifications: codon-optimized
# B6: Ps_CODM_co: O-demethylase D4N502 from Papaver somniferum, codon optimized; positive control (protein, listed as Papaver somniferum)
# chain: METPILIKLGNGLSIPSVQELAKLTLAEIPSRYTCTGESPLNNIGASVTDDETVPVIDLQNLLSPEPVVGKLELDKLHSACKEWGFFQLVNHGVDALLMDNIKSEIKGFFNLPMNEKTKYGQQDGDFEGFGQPYIESEDQRLDWTEVFSMLSLPLHLRKPHLFPELPLPFRETLESYLSKMKKLSTVVFEMLEKSLQLVEIKGMTDLFEDGLQTMRMNYYPPCPRPELVLGLTSHSDFSGLTILLQLNEVEGLQIRKEERWISIKPLPDAFIVNVGDILEIMTNGIYRSVEHRAVVNSTKERLSIATFHDSKLESEIGPISSLVTPETPALFKRGRYEDILKENLSRKLDGKSFLDYMRM
# modifications: codon-optimized
# Tests used:
# oripavine = assay: Bioconversion of oripavine (N-demethylation to nororipavine) by S. cerevisiae expressing cytochrome P450s and CPRs, LC-MS; details: pH 7, 72 h; for nororipavine production when oripavine was administered: co-expressed with CPR_DN5866_c0_g1_i1_Cd9, CPR_DN10898_c0_g1_i1_1A or Cel_CPR_co
# thebaine [1] = assay: Bioconversion of thebaine (N-demethylation to northebaine) by S. cerevisiae expressing cytochrome P450s and CPRs, LC-MS; details: for activity towards thebaine, converting it to northebaine: co-expressed with CPR_DN5866_c0_g1_i1_Cd9, CPR_DN10898_c0_g1_i1_1A or Cel_CPR_co (at least one of the tested CPRs)
# thebaine [2] = assay: In planta conversion of thebaine by transient expression of demethylases and CPRs in Nicotiana benthamiana leaves; details: co-expressed with CPR_DN10898_c0_g1_i1_co or Cel_CPR_co; leaves re-infiltrated with 0.5 mM thebaine after 4 days, measured 1 day after
molecule,measurement,setting,value
B1,oripavine N-demethylation (nororipavine),"oripavine; detected only when feeding 0.5 mM oripavine, with Cel_CPR_co, CPR_DN5866_c0_g1_Cd9 or CPR_DN10898_c0_g1_1A",able to N-demethylate oripavine
same,nororipavine titers lower than those of northebaine,oripavine; thebaine or oripavine fed,20 fold
same,"thebaine N-demethylation (northebaine), screening of T. piriforme P450 candidates","thebaine [1]; 0.1 mM thebaine, non-buffered SC-His-Leu-Ura, with CPRs from C. elegans, G. fujikuroi and S. cerevisiae, 72 h, 30° C.",identified as a thebaine N-demethylase
same,increase in northebaine titers on increasing thebaine concentration to 0.5 mM,"thebaine [1]; 0.1 vs 0.5 mM thebaine, pH 7, 72 h, with Cel_CPR_co, CPR_DN5866_c0_g1_Cd9 or CPR_DN10898_c0_g1_1A",50%
B2,nororipavine production when oripavine was administered,oripavine; 0.5 mM oripavine,capable of producing nororipavine
same,"activity towards thebaine, converting it to northebaine","thebaine [1]; 0.5 mM thebaine, pH 7, 72 h",displayed activity towards thebaine
B3,nororipavine production when oripavine was administered,oripavine; 0.5 mM oripavine,capable of producing nororipavine
same,"activity towards thebaine, converting it to northebaine","thebaine [1]; 0.5 mM thebaine, pH 7, 72 h",displayed activity towards thebaine
B4,nororipavine production when oripavine was administered,oripavine; 0.5 mM oripavine,capable of producing nororipavine
B5,"demethylase activity towards oripavine (nororipavine), C. echinulata P450 candidates","oripavine; 0.5 mM oripavine, co-expressed with Cel_CPR",displayed demethylase activity towards thebaine and oripavine
same,"demethylase activity towards thebaine (northebaine), C. echinulata P450 candidates","thebaine [1]; 0.5 mM thebaine, pH 7, 72 h, co-expressed with Cel_CPR",displayed demethylase activity towards thebaine and oripavine
B6,conversion of thebaine into oripavine in N. benthamiana leaves vs negative control,thebaine [2],capable of converting thebaine into oripavine
same,northebaine levels in N. benthamiana leaves vs negative P19 control,thebaine [2],not apparent
